According to the supplement of paper PMC10567573:

B1: NP_015628.1 (parent)
chain: EQRNSRWNTVLRAVKAKTHHLEP

Variants of: B1
Assay: protein stability index of a GFP-peptide fusion (GPS, HEK-293T) (PSI 1-6); higher = more stable
Conditions: c terminus: native
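Further: lentivirally expressed fusion library, cells FACS-sorted into six equal-sized GFP/DsRed ratio bins, PSI computed from sequencing read fractions per bin weighted by bin number.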

| Variant | protein stability index |
| --- | --- |
| EQRNSRWNTVLRAVKALTHHLEP [K17L] | 2.62 |
| EQRNSRWNTVLRAVKAFTHHLEP [K17F] | 2.75 |
| EQRNSRWNTVLRAVKATTHHLEP [K17T] | 2.84 |
| EQRNSRWNTVLRAVKAVTHHLEP [K17V] | 2.79 |
| EQRNSRWNTVLRAVKAHTHHLEP [K17H] | 2.52 |
| EQRNSRWNTVLRAVKASTHHLEP [K17S] | 2.85 |
| EQRNSRWNTVLRAVKADTHHLEP [K17D] | 3.1 |
| EQRNSRWNTVLRAVKAQTHHLEP [K17Q] | 2.67 |
| EQRNSRWNTVLRAVKAYTHHLEP [K17Y] | 2.82 |
| EQRNSRWNTVLRAVKAMTHHLEP [K17M] | 2.91 |
| EQRNSRWNTVLRAVKAITHHLEP [K17I] | 2.61 |
| EQRNSRWNTVLRAVHAKTHHLEP [K15H] | 3.22 |
| EQRNSRWNTVLRAVWAKTHHLEP [K15W] | 3.24 |
| EQRNSRWNTVLRAVSAKTHHLEP [K15S] | 3.26 |
| EQRNSRWNTVLRAVYAKTHHLEP [K15Y] | 3.25 |
| EQRNSRWNTVLRAVVAKTHHLEP [K15V] | 3.11 |
| EQRNSRWNTVLRAVFAKTHHLEP [K15F] | 2.9 |
| EQRNSRWNTVLRAVDAKTHHLEP [K15D] | 3.21 |
| EQRNSRWNTVLRAVCAKTHHLEP [K15C] | 3.1 |
| EQRNSRWNTVLRAVIAKTHHLEP [K15I] | 3.1 |
| EQRNSRWNTVLRAVEAKTHHLEP [K15E] | 3.25 |
| EQRNSRWNTVLRAVLAKTHHLEP [K15L] | 3.07 |
| EQRNSRWNTVLRAVMAKTHHLEP [K15M] | 3.33 |
| EQRNSRWNTVLRAVQAKTHHLEP [K15Q] | 3.05 |
| EQRNSRWNTVLRAVTAKTHHLEP [K15T] | 2.99 |

| Variant | protein stability index |
| --- | --- |
| EQRNSRWNTVLRAVPAKTHHLEP [K15P] | 3.14 |
| EQRNSRWNTVLRAVRAKTHHLEP [K15R] | 3.08 |
| EQRNSRWNTVLRAVNAKTHHLEP [K15N] | 3.17 |
| EQRNSRWNTVLRAVAAKTHHLEP [K15A] | 3.24 |
| EQRNSRWNTVLRAVGAKTHHLEP [K15G] | 3.31 |
| EQRNSRWNTVLRDVKAKTHHLEP [A13D] | 2.78 |
| EQRNSRWNTVLRYVKAKTHHLEP [A13Y] | 3.1 |
| EQRNSRWNTVLRLVKAKTHHLEP [A13L] | 2.69 |
| EQRNSRWNTVLRTVKAKTHHLEP [A13T] | 2.97 |
| EQRNSRWNTVLRNVKAKTHHLEP [A13N] | 3.06 |
| EQRNSRWNTVLREVKAKTHHLEP [A13E] | 2.24 |
| EQRNSRWNTVLRKVKAKTHHLEP [A13K] | 2.87 |
| EQRNSRWNTVLRRVKAKTHHLEP [A13R] | 2.57 |
| EQRNSRWNTVLRSVKAKTHHLEP [A13S] | 3 |
| EQRNSRWNTVLRMVKAKTHHLEP [A13M] | 3.28 |
| EQRNSRWNTVLRIVKAKTHHLEP [A13I] | 2.66 |
| EQRNSRWNTVLRHVKAKTHHLEP [A13H] | 2.94 |
| EQRNSRWNTVLRQVKAKTHHLEP [A13Q] | 2.7 |
| EQRNSRWNTVLRCVKAKTHHLEP [A13C] | 3.08 |
| EQRNSRWNTVLRGVKAKTHHLEP [A13G] | 2.89 |
| EQRNSRWNTVLRFVKAKTHHLEP [A13F] | 2.52 |
| EQRNSRWNTVLRWVKAKTHHLEP [A13W] | 2.93 |
| EQRNSRWNTVLRAVKAKTHHKEP [L21K] | 4.92 |
| EQRNSRWNTVLRAVKAKTHHAEP [L21A] | 4.09 |
| EQRNSRWNTVLRAVKAKTHHHEP [L21H] | 4.16 |

| Variant | protein stability index |
| --- | --- |
| EQRNSRWNTVLRAVKAKTHHREP [L21R] | 2.08 |
| EQRNSRWNTVLRAVKAKTHHDEP [L21D] | 4.04 |
| EQRNSRWNTVLRAVKAKTHHGEP [L21G] | 3.67 |
| EQRNSRWNTVLRAVKAKTHHNEP [L21N] | 4.59 |
| EQRNSRWNTVLRAVKAKTHHFEP [L21F] | 3.82 |
| EQRNSRWNTVLRAVKAKTHHPEP [L21P] | 4.27 |
| EQRNSRWNTVLRAVKAKTHHIEP [L21I] | 3.59 |
| EQRNSRWNTVLRAVKAKTHHEEP [L21E] | 4.79 |
| EQRNSRWNTVLRAVKAKTHHTEP [L21T] | 4.26 |
| EQRNSRWNTVLRAVKAKTHHQEP [L21Q] | 4.55 |
| EQRNSRWNTVLRAVKAKTHHMEP [L21M] | 3.01 |
| EQRNSRWNTVLRAVKAKQHHLEP [T18Q] | 3.34 |
| EQRNSRWNTVLRAVKAKIHHLEP [T18I] | 3.12 |
| EQRNSRWNTVLRAVKAKAHHLEP [T18A] | 2.91 |
| EQRNSRWNTVLRAVKAKRHHLEP [T18R] | 3.11 |
| EQRNSRWNTVLRAVKAKMHHLEP [T18M] | 2.83 |
| EQRNSRWNTVLRAVKAKKHHLEP [T18K] | 2.97 |
| EQRNSRWNTVLRAVKAKPHHLEP [T18P] | 2.93 |
| EQRNSRWNTVLRAVKAKCHHLEP [T18C] | 2.5 |
| EQRNSRWNTVLRAVKAKDHHLEP [T18D] | 3.14 |
| EQRNSRWNTVLRAVKAKLHHLEP [T18L] | 3.13 |
| EQRNSRWNTVLRAVKAKVHHLEP [T18V] | 3.12 |
| EQRNSRWNTVLRAVKAKEHHLEP [T18E] | 3.26 |
| EQRNSRWNTVLRAVKAKSHHLEP [T18S] | 2.29 |
| EQRNSRWNTVLRAVKAKYHHLEP [T18Y] | 2.84 |

| Variant | protein stability index |
| --- | --- |
| EQRNSRWNTVLRAVKAKHHHLEP [T18H] | 2.76 |
| EQRNSRWNTVLRAVKAKGHHLEP [T18G] | 3.12 |
| EQRNSRWNTVLRAVKAKNHHLEP [T18N] | 2.82 |
| EQRNSRWNTVLRAVKAKWHHLEP [T18W] | 3.57 |
| EQRNSRWNTVLRAVKAKFHHLEP [T18F] | 3.33 |
| EQRNSRWNTVLRAVKAKTHALEP [H20A] | 2.81 |
| EQRNSRWNTVLRAVKAKTHTLEP [H20T] | 3.27 |
| EQRNSRWNTVLRAVKAKTHKLEP [H20K] | 4.01 |
| EQRNSRWNTVLRAVKAKTHDLEP [H20D] | 3.09 |
| EQRNSRWNTVLRAVKAKTHNLEP [H20N] | 3.47 |
| EQRNSRWNTVLRAVKAKTHVLEP [H20V] | 3.46 |
| EQRNSRWNTVLRAVKAKTHWLEP [H20W] | 3.46 |
| EQRNSRWNTVLRAVKAKTHPLEP [H20P] | 3.89 |
| EQRNSRWNTVLRAVKAKTHYLEP [H20Y] | 3.25 |
| EQRNSRWNTVLRAVKAKTHGLEP [H20G] | 1.9 |
| EQRNSRWNTVLRAVKAKTHILEP [H20I] | 3.15 |
| EQRNSRWNTVLRAVKAKTHQLEP [H20Q] | 2.89 |
| EQRNSRWNTVLRAVKAKTHSLEP [H20S] | 2.66 |
| EQRNSRWNTVLRAVKAKTHLLEP [H20L] | 3.6 |
| EQRNSRWNTVLRAVKAKTHFLEP [H20F] | 3.22 |
| EQRNSRWNTVLRAVKAKTHCLEP [H20C] | 2.23 |
| EQRNSRWNTVLRAVKAKTHELEP [H20E] | 3.19 |
